Tests used:
[1] = target: N-terminal FLAG-tagged human formyl-peptide receptor 2 fused C-terminally to Renilla luciferase (FPR2-Rluc8) (human) (UniProt P25090); assay: FRET or BRET; BRET as a1, FPR2-RLuc8 with Venus-β-arrestin in Control cells of the GRK-edited HEK293 panel; WKYMVm 10 min
[2] = target: N-terminal FLAG-tagged human formyl-peptide receptor 2 fused C-terminally to Renilla luciferase (FPR2-Rluc8) (human) (UniProt P25090); assay: FRET or BRET; BRET as a1, in ΔQ-GRK cells co-transfected with GRK3; WKYMVm 10 min
[3] = target: N-terminal FLAG-tagged human formyl-peptide receptor 2 fused C-terminally to Renilla luciferase (FPR2-Rluc8) (human) (UniProt P25090); assay: FRET or BRET; BRET as a1, in CRISPR-Cas9-edited HEK293 cells without GRK2/3 (ΔGRK2/3); WKYMVm 10 min
[4] = target: N-terminal FLAG-tagged human formyl-peptide receptor 2 fused C-terminally to Renilla luciferase (FPR2-Rluc8) (human) (UniProt P25090); assay: FRET or BRET; BRET in live HEK293 cells co-transfected with receptor-RLuc8 (donor, 400 ng) and Venus-tagged mGsi, β-arrestin 1 or β-arrestin 2 (acceptor), 4:1 acceptor:donor; 37°C, Hank's balanced salt solution, 5 μM coelenterazine H; increasing WKYMVm, read 10 min after agonist; ratio acceptor:donor minus untreated; Emax by nonlinear regression; pertussis toxin pretreatment had no effect on β-arrestin recruitment
[5] = target: FPR2 ΔBC-RLuc8 (human) (UniProt P25090); assay: as above
[6] = target: FPR2 ΔABC-RLuc8 (all C-terminal serine and threonine residues mutated to alanine) (human) (UniProt P25090); assay: as above
[7] = target: FPR2 ΔAB-RLuc8 (human) (UniProt P25090); assay: as above
[8] = target: FPR2 ΔAC-RLuc8 (human) (UniProt P25090); assay: as above
[9] = target: FPR2 ΔABC with T331 reintroduced, RLuc8 fusion (human) (UniProt P25090); assay: as above
[10] = target: FPR2 ΔABC with S328 (printed once as S329) reintroduced, RLuc8 fusion (human) (UniProt P25090); assay: as above
[11] = target: FPR2 ΔABC with S326 reintroduced, RLuc8 fusion (human) (UniProt P25090); assay: as above
[12] = target: N-terminal FLAG-tagged human formyl-peptide receptor 2 fused C-terminally to Renilla luciferase (FPR2-Rluc8) (human) (UniProt P25090); assay: FRET or BRET; BRET as a1, in CRISPR-Cas9-edited HEK293 cells without GRK5/6 (ΔGRK5/6); WKYMVm 10 min
[13] = target: N-terminal FLAG-tagged human formyl-peptide receptor 2 fused C-terminally to Renilla luciferase (FPR2-Rluc8) (human) (UniProt P25090); assay: FRET or BRET; BRET in live HEK293 cells co-transfected with receptor-RLuc8 (donor, 400 ng) and Venus-tagged mGsi, β-arrestin 1 or β-arrestin 2 (acceptor), 4:1 acceptor:donor; 37°C, Hank's balanced salt solution, 5 μM coelenterazine H; increasing WKYMVm, read 10 min after agonist; ratio acceptor:donor minus untreated; Emax by nonlinear regression; pertussis toxin pretreatment had no effect on β-arrestin recruitment; remark: listed apart in the source
[14] = target: FPR2 S326A-RLuc8 (human) (UniProt P25090); assay: as above
[15] = target: FPR2 S328A-RLuc8 (human) (UniProt P25090); assay: as above
[16] = target: FPR2 T331A-RLuc8 (human) (UniProt P25090); assay: as above
[17] = target: N-terminal FLAG-tagged human formyl-peptide receptor 2 fused C-terminally to Renilla luciferase (FPR2-Rluc8) (human) (UniProt P25090); assay: FRET or BRET; BRET as a1, in ΔQ-GRK cells co-transfected with GRK5; WKYMVm 10 min
[18] = target: N-terminal FLAG-tagged human formyl-peptide receptor 2 fused C-terminally to Renilla luciferase (FPR2-Rluc8) (human) (UniProt P25090); assay: FRET or BRET; BRET as a1, in ΔQ-GRK cells co-transfected with GRK2; WKYMVm 10 min
[19] = target: N-terminal FLAG-tagged human formyl-peptide receptor 2 fused C-terminally to Renilla luciferase (FPR2-Rluc8) (human) (UniProt P25090); assay: FRET or BRET; BRET as a1, in ΔQ-GRK cells co-transfected with GRK6; WKYMVm 10 min
[20] = target: β-arrestin 2 fused to Venus fluorescent protein (UniProt P32121); assay: BRET; conditions: HEK293 cells; WKYMVm at x = -5 (highest concentration), 10 min; parent: est. 0.064; read off a plot
[21] = target: Venus-tagged mini-Gsi (mGsi); assay: BRET; conditions: HEK293 cells; WKYMVm at x = -5 (highest concentration), 10 min; parent: est. 0.076; read off a plot

| Emax (BRET) (normalized acceptor:donor ratio) [1] | Emax (BRET) (normalized acceptor:donor ratio) [2] | Emax (BRET) (normalized acceptor:donor ratio) [3] | Emax (BRET) (normalized acceptor:donor ratio) [12] | Emax (BRET) (normalized acceptor:donor ratio) [17] | Emax (BRET) (normalized acceptor:donor ratio) [18] | Emax (BRET) (normalized acceptor:donor ratio) [19] | Substance | Emax (BRET) (normalized acceptor:donor ratio) [4] | Emax (BRET) (normalized acceptor:donor ratio) [5] | Emax (BRET) (normalized acceptor:donor ratio) [6] | Emax (BRET) (normalized acceptor:donor ratio) [7] | Emax (BRET) (normalized acceptor:donor ratio) [8] | Emax (BRET) (normalized acceptor:donor ratio) [9] | Emax (BRET) (normalized acceptor:donor ratio) [10] | Emax (BRET) (normalized acceptor:donor ratio) [11] | Emax (BRET) (normalized acceptor:donor ratio) [13] | Emax (BRET) (normalized acceptor:donor ratio) [14] | Emax (BRET) (normalized acceptor:donor ratio) [15] | Emax (BRET) (normalized acceptor:donor ratio) [16] | also measured |
| --- | --- | --- | --- | --- | --- | --- | --- | --- | --- | --- | --- | --- | --- | --- | --- | --- | --- | --- | --- | --- |
| 0.0931 | 0.0855 | 0.0708 | 0.0299 | 0.0884 | 0.0822 | 0.0557 | β-arrestin 1 fused to Venus fluorescent protein (from UniProt P49407 1-418) (natural protein) | 0.0782 | 0.000955 | 0.00138 | 0.0359 | 0.0638 | -0.000883 | -0.00162 | 0.00242 | 0.0821 | 0.0623 | 0.0481 | 0.0667 |  |
| 0.098 | 0.0949 | 0.0807 | 0.0541 | 0.0971 | 0.0987 | 0.0583 | β-arrestin 2 fused to Venus fluorescent protein (from UniProt P32121 1-409) (natural protein) | 0.0715 | 0.0015 | 0.0146 | 0.0396 | 0.0691 | 0.0194 | 0.0111 | 0.0217 | 0.0854 | 0.0605 | 0.0608 | 0.0611 |  |
|  |  |  |  |  |  |  | N-terminal FLAG-tagged human formyl-peptide receptor 2 fused C-terminally to Renilla luciferase (FPR2-Rluc8) (from UniProt P25090) DAC (… to …; R to A of the DRC motif) |  |  |  |  |  |  |  |  |  |  |  |  | response [20]: 0.033 N-BRET; response [21]: 0 N-BRET |
